Data from the nanobody polyreactivity screen of Harvey et al. (2022).

test: yeast display, Sf9 membrane polyspecificity reagent, FACS + sequencing; frameworks hold sequencing errors
How it was run: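 Galactose induction of a Saccharomyces cerevisiae BJ5465 synthetic nanobody display library ran 36–48 hours. The cells were then stained for 1 hour at 4 °C with 10% biotinylated, detergent-solubilized Sf9 membrane reagent, pulled down on streptavidin microbeads and FACS-sorted into low and high (top ~1%) gates on expression and reagent-binding fluorescence. Labels for polyreactivity follow the gate of origin.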

Row | Sequence | polyreactivity (PSR sort gate)
1 | QVQLVESGGGLVQAGGSLRLSCAASGSIFYYYAMGWYRQAPGKERELVAAITVSGGRTYYADSVKGRFTISRDNAKNTVYLQMNSLKPEATAVYYCAAQIYGKYDYWGQGTQVTVSS | low polyreactivity
2 | QVQLVESGGGLVQAGGSLRLTCAASGSISFGYAMGWYRQAPGKERELVAAITWSTARTYYADSVKGRFTISRDNAKNTVYLQMNSLKPEDTAVYYCAKGGYWGQGTQVTVSS | high polyreactivity
3 | QVQLVESGGGLVQAGGSLRISCAASGRIFEVYDMGWYRQAPGKERELVAAISESDDNTYYADSVKGRFTISRDNAKNTVYLQMNSLKPEDTEVYYCNADVPGDTGWWGFDYWGQGTQVTVSS | low polyreactivity
4 | QVQLVESGGGLVQAGGSLRLSCAASGRTFVANAMGLYRQAPGKERELVAAISSSGGSTYYADSVKGRFTISRDYAKNTVYLQMNSLKPEDTAVYYCNRVGVYYRLYPYYYWGQGTQVTVSS | high polyreactivity
5 | QVHLVESGGGLVQAGGSLRLSCAASGSIFAGNAMGLSRQAPGKERELVAGISRSGGSTNYADSVKGRFTISRDNAKNSVYLQMNSLKPEDTAVYYCNTDPYSSAWYNYDYWGLGTQVTVSS | low polyreactivity
6 | QVQLVESGGGLVQAGGSLRLSCAASGRTFGKNAMGWYRPAPGKERELVAAIRYRTGSTYYADSVKGRFTISRDNAKNTVYLQMNSLKPEDTAVYYCAKVGSSPLYWGQGTHVTVSS | high polyreactivity
7 | QVQLVESGGGLVQAGGSLRLSCAASGRIFGTYAMGWYRQAPGKERELVASITDRGDSTYADSVKGRFTISRDNAKNTVYLQMNSLKPEDTAVYYCAVGYNSKLAVGMYYWGQGTQVTVSS | low polyreactivity
8 | QVQLVESGGGLVQAGGSLRLSCAASGRIFYYNTMGWYRQAPGKERELVARITYSGGRTYYADSVKGRFTISRDNAKNTVYLQMNSLKPEDTAVYYCNAKPRYYQTGGGYWGQGTQVTVSS | high polyreactivity
9 | QVQLVESGGGLVQAGGSLRLSCAASGIFSYYAMGWSRQAPGKERELVAAISWSGGSTYYADSVKGRFTISRDNAKNTVYLQKNSLKPEDTAVYYCNKAYLTSQPRLGYWGQGTQVTVSS | high polyreactivity
10 | QVQLVESGGGLVQAGGSLRLSCAASGRTFPAYAMGWYRQAPGKERELVASIDLSGGSTSYADSVKGRFTISRDNAKNTVYLQMNSLKPEDTAVYYCAKKGRWSSASSGYYYWGQGTQVTVSS | low polyreactivity
11 | QVQLVESGGGLVQAGGSLRLSCAASGSIFVWNALGWYRQAPGTERELVAAISYTDGSTYYADSVKGRFTISRDNATNTVYFQMNSLKPEVTAVYYCNAYPASRGPGNPLDDYWGQGTQVTVSS | low polyreactivity
12 | QVQLVESGGGLVQAGGSLRLSCAASGLIFTYYAMGWYRQAPGKERELVAAINWSGGSTYYADSVKGRFTISRDNAKNTVYLQMNSLKPEDTAVYYCAAAYANYRFYYWGQGTQVTVSS | high polyreactivity
13 | QVQLVESGGGLVQAGGSLRLSCAASGITFFRYTMGWYRQAPGKEREFVAAINIRGTRTYYADSVKGRFTISRDNAKNTVYLQMNSLKPEDTAVYYCAAGYAYRYSGLSYDVDYWGQGTQVTVSS | high polyreactivity
14 | QVQLVESGGGLVQAGGSLRLSCAASGSIIVRYAMGWYRQAPGKERELVAAISWSGGRTYYADSVKGRFTISRDNAKNTVYLQMNSLKPEDTAVYYCAKRQGGRKYVRYEYDSWGQGTQVTVSS | low polyreactivity
15 | QDQLVESGGGLVQPGGSLRLSCAASGITFYYYTMGWYRQAPGKERELVAGITRGGRTYYADSVKGRFTISRDNAKNTVYLQMNSLKPVDSAVYYCNADPWWRFDYWGQGTQVTVSS | low polyreactivity
16 | QVQLVDSGGGLVQAGGSLRLSCAASGRTIGINPMGWYRQAPGKERELVASITRSVGSTYDADSVKGRFTISRDNAKNTVYLQMNSLKPEDTEVYYCAAEYYTWSYYTKYYYWGQGTQVTVSS | high polyreactivity

Row | Sequence | polyreactivity (PSR sort gate)
17 | PVQLVESGGGLVQAGGSLRLSCAASGFTFSYYAMGWYRQAPGQEWELVAGIDDSCGSTYYADSVKGRFTISRDNAKNTVELQMNSLKPEDTAFYYCNAVYARKYYYSHGYDYWGQGTQVTVSS | high polyreactivity
18 | QVQLVESGGGLVQAGGSLRLSCAASGFIFASYTMGWYRQAPGNEREWVAAISRSGGRTYYADSVKGRFTISRDNAKKTVYLQMNSLKPEDTAVYYCATLETTGVNYWGQGTQVTVSS | high polyreactivity
19 | QVQLVESGGGLVQAGGSLRLSCAASGRTSRFYAMGWYRQAPGKERELVARITTRGGSTYYADSVKGRFTISRDNAKNTVYLQMNSLKPEDTAVYYCNAERAGTYRYDYWGQGTQVTVSS | high polyreactivity
20 | QVQLVESGGGLVQAGGSLRLSCAASGLIFRTYTMGWNRQAPGKERELVAVISTSGGTTYYADSVKGRFTISRDNAKNTVYLQMNSLKPEDTAVYYCAKRYYWKYAEYDYWGQGSQVTVSS | high polyreactivity
21 | QVQLVESGGGLVQAGGSLRLTCAASGITFGSYAMGWYRQAPGKERELVAAITWRDGSTYYADSVKGRFTISRDNAKNTVYLQMYSLKPEDTAVYYCAAYLGLRYVGDVSDTWRYDYWGQGTQVTVSS | low polyreactivity
22 | QVQLVESGGGLVQAGGSLRLRCAASGSIFWWYTMGWYRQAPGKERELVASISWSGTSTYYADSVKGRFTISRDNAKYTVYLQMNSLKPEDTALYYCNAVVYWPGTPYTHDDWGQGTQVTVSS | low polyreactivity
23 | QVQLVESGGGLVQAGGSLRLSCAASGSIFDDYAMGWYRQAPGKERELVAAISWSGGRPYYADSVKGRFTNSRDNAKNTVYLPMNSLKPEDTAVYYCAATTGVRSRRYYYWVQGTQVTVSS | low polyreactivity
24 | QVQLVESGGGLVQAGGSLRLSCAASGRTFVVYAMGWYRQAPGKERELVASISSIGDITNYADSVKGRFTISRDNAKNTVYLQMNSLKPEYTAVYYCTAPIGGSYNTRRAAEYDYWGQGTQVTVSS | low polyreactivity
25 | QVQLVESGGGLVQAGGSLRISCAASGSIFGWYAMGWYRPAPGKEREFVATISRRGGRTYYADSVKGRFTISRDNAKNTVYLQMNSLKQEDTAVYYCAANSVYKEDYWGQVTQVTVSS | high polyreactivity
26 | QVQLVESGGGLVQAGGSLRLSCAASGSTFEKNAMGWYRQAPGKEREFVAAISRRGGSTYYADSVKGRFTISRDNAKNTVYLQMNSLKPEDTAVYYCAAQQLTWYSYRGDYWGQGTQVTVSS | high polyreactivity
27 | QVQLVESGGGLVQAGGSLRLSCAASGSTIRSNAMGWYRQEPGKERELVAAISRTGGRTYYADSVKGRFTISRDNAKNTVYLQMNSLKPEDTAVYYCARPDKGLEYSENYYWGQGTQVTVSS | high polyreactivity
28 | QVQLEESGGGLVQAGGSLRLSCAASGRIFPRYAMGWYRQAPGKERELVATISSGGSTYYADSVKGRFTISRDNATNTVYLQMNSLTPEDTAVYYCAARKRPYSVINGMDYWGQGTQVTVSS | low polyreactivity
29 | QVQLVESGGGLVQAGGSLRLSCAASGSTFTYYAMGWYRQAPGKERELVADISRDGGSTYYADSVKGRFTISRDNAKNTVNLQMNSLKPEDTAVYYCATDMVYKYDYWGQGTQVTVSS | low polyreactivity
30 | QVQLVESGGGLVQAGGSLRLSCAASGFTFWYNAMGWYRQAPGKERELVAAITSAGSTSYADSVKGRFTISRDNAKNTVYLQMNSLKPEDTAVYYCNADLASSFSRANKYDYWGQGTQVTVSS | low polyreactivity
31 | QVQLVESGGGLVQAGGSLRLSCAASGFILKPYAMGWYRQAPWKERELVAAITYSGSSTYYADSVKGRFTISRDNAKNTVYLQMNSLKPEDTAVYYCAARDWSHPRRLFYWGQGTQVTVSS | high polyreactivity
32 | QVQLVESGGGLVEAGGSLRLSCAASGSIFGNYALGWYRQAPGKERELVAAITSSNGNTYNADSVKGRFTISRDTAKNTVYFQMNSLKPEDTAVYYCATDSWSPYLQTIFYYWGHGTQVTVSS | low polyreactivity
